Laboratory results as given in the nanobody polyreactivity screen of Harvey et al. (2022).

experiment: yeast display, Sf9 membrane polyspecificity reagent, FACS + sequencing; frameworks hold sequencing errors
Summary of the method: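 Synthetic nanobody libraries on Saccharomyces cerevisiae BJ5465 were galactose-induced for 36–48 hours, stained 1 hour at 4 °C with 10% biotinylated, detergent-solubilized Sf9 membrane reagent and enriched on streptavidin microbeads. FACS then separated cells into low and high (top ~1%) gates by anti-HA (expression) and streptavidin (reagent binding) fluorescence. Genes were colony-PCR amplified, MiSeq 2 × 250 sequenced and CDR-length filtered. A clone's polyreactivity label is that of its gate of origin.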

| Sequence | polyreactivity (PSR sort gate) |
| --- | --- |
| QVQLVESGGGLVQAGGSLRLSCAASGRIFYFYAMGWYRQAPGKERELVAAISRRGGTTNYADSVKGRFTISRDNAKNTVYLQMNSLKPEDTAVYYCAADYQSVGGAEYDYWGQGTQVTVSS | high polyreactivity |
| QVQLVESGGGLVQAGGSLRLSCAASGTFFIYAMGWYRPAPGKERELVDTISTGGSTNYADSVKGRFTISRDNAKNTVYLQMNSLKPEDTAVYSCAAEWLYPHDGGYPRPMDYWGQGTQVTVSS | low polyreactivity |
| QVQLVESGGGLVQAGGSLRLICAASGFIFDAYAMGWYRQAPGKERELVAAISRTGGSTYYADSVKGRFTISRDNAKNTVYLQMNSLKPEDTAVYYCTAYKSHDDYYWGQGTQITVSS | high polyreactivity |
| QVQLVESGGGLVQAGVSLRLSCAASGFIFPYYAMGWYRQAPGKERELVAAITRGGRTYYADSVKGRFTISRDNAKNTVYLQMNSLKPEDTAVYYCAARSVGKRGYDYWGLGTQVTVSS | high polyreactivity |
| QVQLVESGGGLVQAGGSLRLSCAASGRTFGPNAMGWYRQAPGKEMELVATITYIGGSTYYADSVKGRFTISRDNAKNTVYLQMNSLKPEDTAVYYCAKRGGSYKEGDSWGQGTQVTVSS | low polyreactivity |
| QVQHVESGGGLVQAGGSLRLSCAASGIIFYDKTMGWYRQAPGKERELVASITWRGGSTYYADSVKGRFTISRDNAKNTVYLQMNSLKPEDTAVYYCNADSSDDYDYWGQGTQVTVSS | low polyreactivity |
| QVQLVESGGGLVQAGCSLRLSCAASGLTFYHYTMGWYRQEPGKERDLVAAISRRGGYTYYADSVKGRFTISRDNAKNTVYLQMNSLKPEDTAVYYCAARALRYSRDFDYWGQGTQVTVSS | high polyreactivity |
| QVQLVESGGGLVQAGGSLRLICAASGSTRRYVMGWYRQAPGKERELVAVISRGGSTYYADSVKGRFTISRDNAKNTVYLQMNSLKPEDTAVYYCNVQPVIPRGGDYWGQGTQVTVSS | high polyreactivity |
| QVQLVESGGGLVQAGGSLRLSCAASGSISYVNAMGWYRQAPGKERELVAAITGGGSTNYADSVKGRFTISRDNAKNTVYLQMNSLKPEDTAVYYCAADADTDVVYILQEYDYWGQGTQVTVSS | low polyreactivity |
| QVQLVESGGGLVQAGGSLRLSCAASGSISSKNSMGWYRQAPGKEREFVAVISGTGGSTYYSDSVKGRFTISRDIAKNTVYLQMNSLKPEDTAVYYCAADFPWSTKSWHPDSGDSWGQGTQVTVSS | low polyreactivity |
| QVQLVESGGGLVQAGGSLRLSCAASGRIFFVNAMGWSRQAPGKERELVAAISRGGSTNYADSVKGRFTISRDNAKNTVYLQMNSLKPEDTAVYYCNADGSSYWYPVPLDGGDYWGQGTQVTVSS | low polyreactivity |
| QVQLVESGGGFVQAGGSLRLICADSGRIFGRYAMGWYRQAPGKERELVAVISARGARTYYADSVKGRFTLSRDNAKNTDYLQMNSLKPEATEVYYCAVDQYATDDYWGQGTQVTVSS | high polyreactivity |
| QVQLVESGAGLVQAGGSLRLSCAASGRIFTNYVLGWSRQAPGKERELVAAISWTGGRTYYADSVKGRFTISRDYAKNTVYLQMISLKPEDTAVYYCAARARIGTVDYWGQGTQVTVSS | high polyreactivity |
| QVQLVESGGGLVQAGGSLRLSCAASGITFVRYAMGWYRQAPGKERELVAVISRGGITNYADSVKGRFTISRDNAKNTVYLQMNSMKPEDTAVYYCAVRGRSYVRTYDYWGQGTQVTVSS | high polyreactivity |
| QVHLVESGGGLVQAGGSLRLSCAASGFTFGPYAMGWYRQAPGKERELVAGITWSGASTYYADSVKGRFTISRDNAKNTVYLQMNSLKPEDTAVYYCARYYRLGSRYDYWGQGTQVTLSS | low polyreactivity |
| QVQLVESGGGLVQAGGSLRLSCAASGRIFRPYAMGWYRQAPGKERELVASISWRGSSTYYADSVKGRFTISRDNAKNTVYLQMNSLKPEDTAVYYCAARPYTLAFYRYGYWGQGTQVTVSS | high polyreactivity |
| QVQLVESGGGLVQAGGSLRLSCAASGSIIGDNAMGWYRPAPGKERELVAAITGGDSTYYADSVKGRFTISRDNAKNTVYLQMNSLKPEDTAVYYCNADRFRGRTVDGDYWGQGTQVTVSS | low polyreactivity |
| QVQLVESGGGLVQAGGSLRLSCAASGSTFQSYAMGWYRQAPGKERELVAAITTTGTRTYYADSVKGRFTISRDNAKNTVYFQMNSLKPEDTAVYSCNAQRLQAHRTSRRYDYWGQGTQVTVSS | high polyreactivity |
| QVQLVESAGGIVQAGGSLRLSCAASGFIFVRNAIGWYRQAPGKEREFVAAINSSGGRTYYADSVKGRFTISRDNAKNTVYLQMNSLKPEDPAVYYCAARPQPKKFYYWGLGTQVTVSS | high polyreactivity |
| QVQLVESGGGLVQAGGSLRLSCAASGSIFGPYAMGWYRQAPGKERELVADIRTSGGGTYYADSVKGRFTISRDNAKNTVYLQMNSLKPEDTAVYYCNADPKWEMGSWGQGTQVTVSS | low polyreactivity |
| QVQLVESGGGLVQAGGSLRLSCAASGFIFYSNAMGWYRQAPGKERELVAAISRGGGSTYYADSVKGRFTISRDNAKNTVYLQMNSLKPEDTAVYYCAKRRLSPQDDYWGQGTQVTVSS | high polyreactivity |
| QVQLVESGGGLVQAGGSLRLSCAASGYTFRYYAMGGYRQAPGKERELVADINSGDITNYADSVKGRFTISRDNAKNTVYLQMNSQKPEDTAVYYCAPRTFSLYDYWGQGTQVTVSS | low polyreactivity |

| Sequence | polyreactivity (PSR sort gate) |
| --- | --- |
| QVQLVESGGGLVQAGGSLRLSCAASGLIFVYYTMGWYRQAPGKERELVARISQSGGTTYYADSVKRRFTISRDNAKNTVYLQLNSLKREDTAVYYCAAVYQLYYSGGRYYYWGQGSQVTVSS | high polyreactivity |
| QVQRVESGGGLVQAGGSLRLSCAASGSIIAGYPMGWSRQAPGKERELVAGIRRGGSTNYADSVKGRFTISRDNAKKTVYLQMNSLKPEDTAVYYCNAQRTRSYVLRTFDYWGQGTQVTVSS | high polyreactivity |
| QVQLVESGGGLVQAGGSLRLSCAASGFTFYYYTMGWYRQAPGKEREFVAAITSSGGRTNYADSVKGRFTISRDNAKNIVYLQMNRLKPEDTAVYYCAATYIRYDHYRPRGGYWGQGTQVTVSS | high polyreactivity |
| QVQLVESGGGLVQAGGSLRLSCAASGSIFVPYAMGWYRQAPGKERELVAAINHGGGRTYADSVKGRFTISRDNAKNTVYLQMNSLKPEDTAVYYCAADGAHKIGYYRYYYWGQGTQVTVSS | low polyreactivity |
| QVQLVESGGGLGQAGGSLRLSCAASGRIFSYNSMGWYRPATGKERELVAAISTSGGSTYYADSVKGRFTISRDYAKNTVYLQLISLKPEDTAVYYCNARAPFSSAQPTFLIDDGYHWGQGTQETVSS | low polyreactivity |
| QVQLVESGLGLVKAGGSLRLSCAASGNTFDHYVMVWSRQAPGKEPELVASITSGGSTNYADSVKGRFTISRDNAKNTVYLQMNSLKPEDTAVYYCAVSLSYWYEAFTTRIDYYYWGQGTQVTLSS | high polyreactivity |
| QVQLVESGGGLVQAGGSLRLSCAASGSTSYIYAMGWYRQAPGKERELVAAISKSGGRTYYADSVKGRFTISRDNAKNTVYLQMNSLKPEDTAVYYCAAVPGRTAEDYGEDYWGQGTQVTVSS | high polyreactivity |
| QVQLVESGGGLFHAGGSLRLSCAASGRIFYNYAMGWSRQAPGKERELVAAISGSGGSTYYADSVKGRFTISRDNAKNTVYLQMNSLKPDDTAVYYCSTSGPQYYSRNFDYWGQGTQVTVSS | low polyreactivity |
| QVQLVESGGGLVQAGGRLRLSCAASGITFRTNTMGWYRPAPGKERELVASISSGTRTNYADSVKGRFTISRDNAKNTVYLQLNSLKPVDTAVYYCAAGPPRTRYRNARFDYWGQGTQVTVSS | high polyreactivity |
| QVQLVESGGGLVQAGGSLRLSCAASGSTFYRNAMGWYRQAPGKERELVAAISRRSGTTYYADSVKGRFTISRDNAKNTVYLQMNSLKPEDTSVYYCATVRGGYDYWGQGTQVTVSS | high polyreactivity |
| QVQLVESGGGLVQAGGSLRLSCAASGNIFDSNAMGWYRQAPGKERELVAAITWSGGSTYYADSVKGRFTISRDNAKNTVYLQMNSLKPEDTAVYYCNRYIRYYAWFGYWGQGTQVTVSS | high polyreactivity |
| QVKLVESGGGLVQAGGRLSLSCAASGLTLSGNAMGWYRQAPGKDRELVAAITGRGGSTTYADSVKGRFTISRDNAKNTVYLQMNSVKPEDTAVYYCAATRYSWNNRVSRRHRYEYWGQGTQVTVSS | high polyreactivity |
| QVQLVESGGGLVQAGGSLRLSCAASGSTFAGNAMGWYRQAPGKERELVAAISSSGAGTYYADSVKGRFTISRDNAKNTVYLQMNSLKPEVTAVYYCNVGSRALRRRVRSVSFDYWGQGTQVTVSS | low polyreactivity |
| QVQLVESGGGLVQAGGSLRLSCAASGGTFWYYAMGWYRQAPGKEREFVAAISSRGGNTYYADSVKGRFTISRDNAKNTVYLQMNSLKPEDTAVYYCNAKTHRRYSENYYWGQGTQVTVSS | high polyreactivity |
| QVQLVDSGGGLVQAGGSLRLTCAASGSTFDTNSVGWYRQAPGKERELVAAITSGGNTYADSVKGRFTISRDNAKNTVYFQMNSLKAEDTAVYYCAAEDVFTCWYDYWGQGTQVNVSS | low polyreactivity |
| QVQLVESGGGLVQAGGSLRLSCAASGFIFTYYAMGWYRQAPGKERELVAVISWSGGTTYYADSVKGRFTISRDNAKNTVYLQMNSLKPEDTAVYYCNADRSLLYSRKIEYDYWGQGTQVTVSS | low polyreactivity |
| QVQLQGSGGGLVQAGGSLRLSCAASGYNFQNVPMGWNRQAPGKERELVAGIDNGTSTNYADSVNGRFTISRDNAKNTVYLQMNSLKPEDTAVYYCAAAGQADDTLGYWGQGTQVTVSS | low polyreactivity |
| QVQLVESGGGLVQAGGSLRLSCAASGSIFYHNAMGWYRQAPGKERELVAAISRSGGITSYADSVKGRFTISRDNAKNTVYLQMNSLKPEDTAVYYCAARSYYDGFYYWGQGTQVTVSS | high polyreactivity |
| QVQLVESGGGLVQAGGSLRLSCAASGRTFHAYAMGWYRQAPGKGRELVAAITRTGTTHYADSVKGRFTISRDNAKNTVYLQMNSLKPEDTAVYYCAAQHVRVDAQFVLQGYDYWGQGTQVTVSS | low polyreactivity |
| QVQLVESGGGLVQAGGSLRLSCAASGSIFFNTMGWYRQAPGKERELVAAINTSGGRTYYADSVKGRFTISRDNAKNTVYLQMNSLKPEDTAVYYCATTAYSQYYTYYYWGQGTQVTVSS | high polyreactivity |
| QVQLVESGGGLVQAGGSLRLSCAASGSTIDGYAKGWYTQAPGKEREFVAAISFSSASTYYADSVKGRFTISSDNAKNTFYLQMNSLIPEDTAVYDCAASYKGLWHGDYDYWGQGTQVTVSS | low polyreactivity |
